Reference: patent US20110274702A1

Experiments:
Assay in all cases: ELISA on coated HA
[1] = molecular target: H8N4 A/Alberta/357/84 HA protein (influenza A virus H8N4 A/Alberta/357/84)
[2] = molecular target: H6N5 A/shearwater/Australia/1/72 HA protein (influenza A virus H6N5 A/shearwater/Australia/1/72)
[3] = molecular target: H7N7 A/Netherlands/219/03 HA protein (influenza A virus H7N7 A/Netherlands/219/03)
[4] = molecular target: B/Ohio/1/05 HA protein (influenza B virus B/Ohio/1/05)
[5] = molecular target: H7N3 A/Canada/444/04 HA protein (influenza A virus H7N3 A/Canada/444/04)
[6] = molecular target: H4N6 A/duck/Czechoslovakia/56 HA protein (influenza A virus H4N6 A/duck/Czechoslovakia/56) (UniProt P19696)
[7] = molecular target: H5N1 A/Viet Nam/1/05 HA protein (influenza A virus H5N1 A/Viet Nam/1/05)
[8] = molecular target: H3N2 A/Brisbane/10/07 HA protein (influenza A virus H3N2 A/Brisbane/10/07)
[9] = molecular target: H3N2 A/Wyoming/3/03 HA protein (influenza A virus H3N2 A/Wyoming/3/03)
[10] = molecular target: H5N1 A/Viet Nam/1203/04 HA protein (influenza A virus H5N1 A/Viet Nam/1203/04)
[11] = molecular target: H9N2 A/Hong Kong/1073/99 HA protein (influenza A virus H9N2 A/Hong Kong/1073/99)
[12] = molecular target: H1N1 A/Brisbane/59/07 HA protein (influenza A virus H1N1 A/Brisbane/59/07)
[13] = molecular target: H3N2 A/New York/55/04 HA protein (influenza A virus H3N2 A/New York/55/04)
[14] = molecular target: H10N4 A/mink/Sweded/3900/84 HA protein (influenza A virus H10N4 A/mink/Sweded/3900/84)

Measured: EC50

ctr (antibody)
> 20 µg/mL: all assays above
